In the RNAGym collection of RNA variant scans (doi:10.1073/pnas.2313332121):

B1: TPR t1 (parent)
chain: GACCAAUCUGCCCUCAGAGCUCGAGAACAUCUUCGGAUGCAGAGGAGGCAGGCUUCGGUGGCGCGAUAGCGCCAACGUCCUCAACCUCCAAUGCAUCCCACCACAUGAUGAUGCCUGAAGAGCCUUGGUUUUUUG

Variants of: B1
Assay: polymerase ribozyme fitness, log enrichment relative to wild type (log ratio); higher = more active; in vitro selection for triplet polymerase activity
Procedure, shortened: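 Mutant libraries of both subunits of a heterodimeric triplet polymerase ribozyme were PCR-built, transcribed, and selected once in triplicate, with frozen incubation at −7 °C and capture of gel-excised extended constructs on streptavidin beads before RT-PCR. Illumina sequencing of input and output libraries was filtered to genotypes with ≥10 input reads and ≥1 read per output. Fitness is the logarithm of genotype enrichment over wild-type enrichment, using inverse-variance-weighted replicate averages. The logarithm is base 2.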

In order of rising “polymerase ribozyme fitness (log ratio)” value:
1. U109A U129A  -6.83
2. G107C C115A  -6.69
3. C102A G117C  -6.66
4. A111G G113U U129G U131A  -6.64
5. A103C C104U U116C  -6.48
6. C104A C114U G127A U131A  -6.47
7. C102U A111U U129C  -6.46
8. C104A C114G G127C  -6.1
9. A105U G113U  -5.9
10. A103G G110A  -5.82
11. A103U A119U  -5.64
12. C102G A111C A118C U129C  -5.54
13. A103U G113A U116A A121U  -5.45
14. A105U U109C  -5.35
15. U109A A119G  -5.27
16. G107A A111U  -5.27
17. U109A C114U A118C  -5.26
18. C102G U112A C123U G127A  -5.25
19. U109G U129A  -5.24
20. U109A U112C U130A G135U  -5.01
21. G107A A119G  -4.92
22. C102A G113C U126C  -4.92
23. C102U G117U  -4.91
24. A108C C124G  -4.87
25. A105C G113U  -4.85
26. C104G U112A  -4.8
27. U106A U109G A111U  -4.71
28. C102A G128A  -4.69
29. G110C C123U  -4.69
30. A105G G117A  -4.69
31. U109C C123U  -4.63
32. G107C G120C U130A  -4.61
33. A103G A118G  -4.56
34. G107A U109A A119G  -4.55
35. A103C U133G  -4.45
36. U106G C115U  -4.44
37. A103G G117A  -4.42
38. G113C A119C  -4.37
39. C102G U112A G127U  -4.33
40. U109A G110A  -4.3
41. C102U G110U  -4.26
42. G107A C114A  -4.24
43. A105C U129A  -4.21
44. A103G G113A  -4.15
45. U109C A111U  -4.13
46. U109G G110A  -3.89
47. A103G G110U  -3.83
48. U106G U125G  -3.81
49. G110C U131C  -3.75
50. U106C G117C  -3.72
51. G113C G122A C123U  -3.7
52. U109C A121U  -3.68
53. G110C A121C U130A  -3.51
54. G113A C115A  -3.51
55. C102A G127A  -3.45
56. U106A C114G  -3.33
57. A111C C124U G128C U129A  -3.3
58. G107U A119U A121C  -3.29
59. G113A G127U  -3.27
60. G107A G120C  -3.25
61. U106C G117A  -3.23
62. G113C C114U C115G C124U  -3.2
63. U109G A119G G135C  -3.19
64. A111C U112G G113U U116A C124A  -3.18
65. C104A G110A  -3.18
66. C102U G113A U129A  -3.17
67. A103U C124G  -3.17
68. C102A A111C G120C  -3.12
69. C104A A111U  -3.1
70. A111U C124U  -3.09
71. A103G C114U  -3
72. A103C C123G  -2.94
73. G113C U130G  -2.88
74. G113C G120C  -2.85
75. U106C G113C  -2.72
76. G113A A118U  -2.67
77. U112A G128C  -2.66
78. G113U  -2.64
79. C102U C114G C124G  -2.64
80. G107A C124A  -2.63
81. U112G G122A G128A  -2.62
82. G113C U125G  -2.58
83. C102A U109G  -2.56
84. G113A A118C  -2.55
85. A105U G120U  -2.54
86. G110U U129A  -2.53
87. C104A U125G  -2.44
88. C102A A118G  -2.42
89. G113A G120U  -2.35
90. G113C U125C  -2.26
91. A105C  -2.22
92. U106C U116G  -2.03
93. G113C  -2.02
94. C104A G135U  -2.01
95. G110A U131G  -1.96
96. G110A A111U  -1.9
97. C102U U130C  -1.87
98. U106G C114U  -1.86
99. C102U A118G  -1.73
100. A105G  -1.71
101. A105U  -1.69
102. U106A G117A  -1.55
103. C104U A111U A119G  -1.53
104. U112G G120U G122C  -1.48
105. C104A U112G  -1.47
106. G113A C123A  -1.45
107. G113A C123U  -1.32
108. G110U U130A  -1.27
109. C102U G122U  -1.26
110. U106G U112G  -1.25
111. G110A G120A  -1.23
112. U106C U131C U132A  -1.1
113. G110U U130C  -1.04
114. G113A  -1.01
115. C102U G120U  -0.992
116. C102U C124U  -0.914
117. G113A G122C G135C  -0.874
118. G110A U130A  -0.862
119. C104A C115A  -0.858
120. U112G U116C  -0.775
121. G113C A119G  -0.737
122. C104A G120A  -0.701
123. U106G G120C  -0.678
124. A105G C124U  -0.654
125. U106A U132A  -0.65
126. U112A G122A  -0.631
127. G110A U130C  -0.539
128. U106A U125A  -0.469
129. C102U C104A U130C  -0.457
130. A111C G122A  -0.308
131. A111C G127C  -0.199
132. C104A C123U  -0.0302
133. U112C G122A  0.065
134. A111G U126C  0.0972
135. C104U C123A  0.201
136. A111G C124A U126A  0.226
137. U106C A118U G120A  0.234
138. U112A G127A  0.262
139. U112A G122C  0.265
140. U106A G120A  0.348
141. U112A C115A U125G  0.414
142. A111C U131C  0.44
143. C102A C124U  0.448
144. U106C C123A  0.522
145. A111C C123G  0.549
146. U106A C123U  0.563
147. C104U U133C  0.657
148. U112G  0.661
149. U112C C124A  0.693
150. U106A G120C U130G  0.744
151. A105U U106G G120C  0.766
152. C104U U112C  0.772
153. C104U C124U  0.788
154. C104U G120A  0.815
155. U112G C124U  0.835
156. U112A A118U  0.895
157. U106C C123U  0.901
158. U112A U129A  0.929
159. U106C C123G  0.936
160. U106C U112A  0.973
161. U112A U131A  1.02
162. A111G C124A  1.23
163. U112C A119U  1.24
164. U112A  1.34
165. U112A A121U U125A  1.36
166. U112C  1.39
167. U112A C123A  1.45
